The source of these data is the RNAGym collection of RNA variant scans (doi:10.1093/molbev/msab373).

B1: Azoarcus group I ribozyme (parent)
chain: GUGCCUUGCGCCGGGAAACCACGCAAGGGAUGGUGUCAAAUUCGGCGAAACCUAAGCGCCCGCCCGGGCGUAUGGCAACGCCGAGCCAAGCUUCGGCGCCUGCGCCGAUGAAGGUGUAGAGACUAGACGGCACCCACCUAAGGCAAACGCUAUGGUGAAGGCAUAGUCCAGGGAGUGGCGAAAGUCACACAAACCGG

In the series the parent is B1. In words: reverse-splicing fitness (ratio to wild type); higher = more active; in vitro selection; Mg2+ level not given. In outline:
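An in vitro group I ribozyme library with randomized positions was T7-transcribed and gel-purified. In triplicate, 10 pmol RNA in EPPS pH 7.5 was reacted with 50 pmoles of a 30-nt RNA substrate for 1 h at 37 °C across several added MgCl2 levels (1–48 mM), then stopped with EDTA. Products were reverse transcribed from a substrate-complementary primer, PCR-amplified and sequenced (HiSeq 4000). Fitness is a variant's read proportion after selection over that before, normalised to wild type.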
In the case of GUGCCUUGCGCCGGGAAACCACGCAAGGGAUGGUGUCAAAUUCGGCGAAACCUAAGCGCCCGCCCGGGCGUAUGGCAACGCCGAGCCAAGCUUCGGCGCCUGCGCCGAUGUAGGUGUAGGGACUAGACGGCACCCACCUAAGGCGAACGGUAUGGUGAAGGCAUAGUCCAGGGAGUGGCGAAAGUCACACAAACCGG [A111U A120G A145G C150G], the reverse-splicing fitness stood at 0.0235.
Consider GUGCCUUGCGCCGGGAAACCACGCAAGGGAUGGUGUCAAAUUCGGCGAAACCUAAGCGCCCGCCCGGGCGUAUGGCAACGCCGAGCCAAGCUUCGGCGCCUGCGCCGAUGUAGGUGUAGGGACUAGACGGCACCCACCUAAGGCGAACGUUAUGGUGAAGGCAUAGUCCAGGGAGUGGCGAAAGUCACACAAACCGG [A111U A120G A145G C150U], for which the reverse-splicing fitness is 0.133.
Then GUGCCUUGCGCCGGGAAACCACGCAAGGGAUGGUGUCAAAUUCGGCGAAACCUAAGCGCCCGCCCGGGCGUAUGGCAACGCCGAGCCAAGCUUCGGCGCCUGCGCCGAUGUAGGUGUAGGGACUAGACGGCACCCACCUAAGGCGAACGGUAUGGUGAAGGCAUAGUCGAGGGAGGGGCGAAAGUCACACAAACCGG [A111U A120G A145G C150G C169G U176G], with 0.00518; and GUGCCUUGCGCCGGGAAACCACGCAAGGGAUGGUGUCAAAUUCGGCGAAACCUAAGCGCCCGCCCGGGCGUAUGGCAACGCCGAGCCAAGCUUCGGCGCCUGCGCCGAUGUAGGUGUAGGGACUAGACGGCACCCACCUAAGGCGAACGGUAUGGUGAAGGCAUAGUCGAGGGAGCGGCGAAAGUCACACAAACCGG [A111U A120G A145G C150G C169G U176C], with 0.0108.
As to GUGCCUUGCGCCGGGAAACCACGCAAGGGAUGGUGUCAAAUUCGGCGAAACCUAAGCGCCCGCCCGGGCGUAUGGCAACGCCGAGCCAAGCUUCGGCGCCUGCGCCGAUGUAGGUGUAGGGACUAGACGGCACCCACCUAAGGCGAACGGUAUGGUGAAGGCAUAGUCGAGGGAGAGGCGAAAGUCACACAAACCGG [A111U A120G A145G C150G C169G U176A], the reverse-splicing fitness was found to be 0.00971.
For the variant GUGCCUUGCGCCGGGAAACCACGCAAGGGAUGGUGUCAAAUUCGGCGAAACCUAAGCGCCCGCCCGGGCGUAUGGCAACGCCGAGCCAAGCUUCGGCGCCUGCGCCGAUGUAGGUGUAGGGACUAGACGGCACCCACCUAAGGCGAACGAUAUGGUGAAGGCAUAGUCCAGGGAGCGGCGAAAGUCACACAAACCGG [A111U A120G A145G C150A U176C], the reverse-splicing fitness came out at 0.0274.
For GUGCCUUGCGCCGGGAAACCACGCAAGGGAUGGUGUCAAAUUCGGCGAAACCUAAGCGCCCGCCCGGGCGUAUGGCAACGCCGAGCCAAGCUUCGGCGCCUGCGCCGAUGUAGGUGUAGGGACUAGACGGCACCCACCUAAGGCGAACGAUAUGGUGAAGGCAUAGUCCAGGGAGGGGCGAAAGUCACACAAACCGG [A111U A120G A145G C150A U176G], the reverse-splicing fitness was 0.00712.
Then GUGCCUUGCGCCGGGAAACCACGCAAGGGAUGGUGUCAAAUUCGGCGAAACCUAAGCGCCCGCCCGGGCGUAUGGCAACGCCGAGCCAAGCUUCGGCGCCUGCGCCGAUGUAGGUGUAGGGACUAGACGGCACCCACCUAAGGCGAACGAUAUGGUGAAGGCAUAGUCCAGGGAGAGGCGAAAGUCACACAAACCGG [A111U A120G A145G C150A U176A], with 0.0138.
GUGCCUUGCGCCGGGAAACCACGCAAGGGAUGGUGUCAAAUUCGGCGAAACCUAAGCGCCCGCCCGGGCGUAUGGCAACGCCGAGCCAAGCUUCGGCGCCUGCGCCGAUGUAGGUGUAGGGACUAGACGGCACCCACCUAAGGCGAACGAUAUGGUGAAGGCAUAGUCGAGGGAGUGGCGAAAGUCACACAAACCGG [A111U A120G A145G C150A C169G]: the reverse-splicing fitness came out at 0.0343.
With GUGCCUUGCGCCGGGAAACCACGCAAGGGAUGGUGUCAAAUUCGGCGAAACCUAAGCGCCCGCCCGGGCGUAUGGCAACGCCGAGCCAAGCUUCGGCGCCUGCGCCGAUGUAGGUGUAGGGACUAGACGGCACCCACCUAAGGCGAACGAUAUGGUGAAGGCAUAGUCUAGGGAGUGGCGAAAGUCACACAAACCGG [A111U A120G A145G C150A C169U] the figure was 0.028; with GUGCCUUGCGCCGGGAAACCACGCAAGGGAUGGUGUCAAAUUCGGCGAAACCUAAGCGCCCGCCCGGGCGUAUGGCAACGCCGAGCCAAGCUUCGGCGCCUGCGCCGAUGUAGGUGUAGGGACUAGACGGCACCCACCUAAGGCGAACGAUAUGGUGAAGGCAUAGUCUAGGGAGAGGCGAAAGUCACACAAACCGG [A111U A120G A145G C150A C169U U176A], 0.0247; with GUGCCUUGCGCCGGGAAACCACGCAAGGGAUGGUGUCAAAUUCGGCGAAACCUAAGCGCCCGCCCGGGCGUAUGGCAACGCCGAGCCAAGCUUCGGCGCCUGCGCCGAUGUAGGUGUAGGGACUAGACGGCACCCACCUAAGGCGAACGAUAUGGUGAAGGCAUAGUCUAGGGAGCGGCGAAAGUCACACAAACCGG [A111U A120G A145G C150A C169U U176C], 0.024.
Then GUGCCUUGCGCCGGGAAACCACGCAAGGGAUGGUGUCAAAUUCGGCGAAACCUAAGCGCCCGCCCGGGCGUAUGGCAACGCCGAGCCAAGCUUCGGCGCCUGCGCCGAUGUAGGUGUAGGGACUAGACGGCACCCACCUAAGGCGAACGAUAUGGUGAAGGCAUAGUCUAGGGAGGGGCGAAAGUCACACAAACCGG [A111U A120G A145G C150A C169U U176G], with 0.00606.
As to GUGCCUUGCGCCGGGAAACCACGCAAGGGAUGGUGUCAAAUUCGGCGAAACCUAAGCGCCCGCCCGGGCGUAUGGCAACGCCGAGCCAAGCUUCGGCGCCUGCGCCGAUGUAGGUGUAGGGACUAGACGGCACCCACCUAAGGCGAACGAUAUGGUGAAGGCAUAGUCGAGGGAGGGGCGAAAGUCACACAAACCGG [A111U A120G A145G C150A C169G U176G], the reverse-splicing fitness was determined as 0.00526.
With GUGCCUUGCGCCGGGAAACCACGCAAGGGAUGGUGUCAAAUUCGGCGAAACCUAAGCGCCCGCCCGGGCGUAUGGCAACGCCGAGCCAAGCUUCGGCGCCUGCGCCGAUGUAGGUGUAGGGACUAGACGGCACCCACCUAAGGCGAACGAUAUGGUGAAGGCAUAGUCGAGGGAGCGGCGAAAGUCACACAAACCGG [A111U A120G A145G C150A C169G U176C] the figure was 0.0294.
